Experimental data as given in publication doi:10.1101/2025.11.11.687647 (bioRxiv, 2025).

Target: the molecule itself
Assay: SEC

B1: Mycobacterium tuberculosis pyruvate carboxylase (MtPC), full-length (enzyme)
chain: MFSKVLVANRGEIAIRAFRAAYELGVGTVAVYPYEDRNSQHRLKADESYQIGDIGHPVHAYLSVDEIVATARRAGADAIYPGYGFLSENPDLAAACAAAGISFVGPSAEVLELAGNKSRAIAAAREAGLPVLMSSAPSASVDELLSVAAGMPFPLFVKAVAGGGGRGMRRVGDIAALPEAIEAASREAESAFGDPTVYLEQAVINPRHIEVQILADNLGDVIHLYERDCSVQRRHQKVIELAPAPHLDAELRYKMCVDAVAFARHIGYSCAGTVEFLLDERGEYVFIEMNPRVQVEHTVTEEITDVDLVASQLRIAAGETLEQLGLRQEDIAPHGAALQCRITTEDPANGFRPDTGRISALRTAGGAGVRLDGSTNLGAEISPYFDSMLVKLTCRGRDLPTAVSRARRAIAEFRIRGVSTNIPFLQAVLDDPDFRAGRVTTSFIDERPQLLTARASADRGTKILNFLADVTVNNPYGSRPSTIYPDDKLPDLDLRAAPPAGSKQRLVKLGPEGFARWLRESAAVGVTDTTFRDAHQSLLATRVRTSGLSRVAPYLARTMPQLLSVECWGGATYDVALRFLKEDPWERLATLRAAMPNICLQMLLRGRNTVGYTPYPEIVTSAFVQEATATGIDIFRIFDALNNIESMRPAIDAVRETGSAIAEVAMCYTGDLTDPGEQLYTLDYYLKLAEQIVDAGAHVLAIKDMAGLLRPPAAQRLVSALRSRFDLPVHLHTHDTPGGQLASYVAAWHAGADAVDGAAAPLAGTTSQPALSSIVAAAAHTEYDTGLSLSAVCALEPYWEALRKVYAPFESGLPGPTGRVYHHEIPGGQLSNLRQQAIALGLGDRFEEIEEAYAGADRVLGRLVKVTPTSKVVGDLALALVGAGVSADEFASDPARFGIPESVLGFLRGELGDPPGGWPEPLRTAALAGRGAARPTAQLAADDEIALSSVGAKRQATLNRLLFPSPTKEFNEHREAYGDTSQLSANQFFYGLRQGEEHRVKLERGVELLIGLEAISEPDERGMRTVMCILNGQLRPVLVRDRSIASAVPAAEKADRGNPGHIAAPFAGVVTVGVCVGERVGAGQTIATIEAMKMEAPITAPVAGTVERVAVSDTAQVEGGDLLVVVS
- stoichiometry N: 4
